*1 amine or outer side, *2 acyl side, *3 side chain or, on linkers, in order; H or OH if unused. Bridges are numbered along the chain shown (N, C = ends). [ ]: non-standard residue; d: D form. The star is where a group is joined. DOTA = O=C(O)CN1CCN(CC(=O)O)CCN(CC(=O)*)CCN(CC(=O)O)CC1; N(2-mercaptoethyl)Gly = O=C(CN(CCS[*:3])[*:1])[*:2]; Aoc = NCCCCCCCC(=O)O; CPT = camptothecin; GABA = NCCCC(=O)O
What was measured:
Experiment in all cases: Radioligand binding, displacement of 125I-Tyr11-SRIF-14
SSTR2 = SSTR2 (Homo sapiens, UniProt P30874); design: host or cells: CHO (Chinese Hamster Ovary) cells, membrane preparation; conditions: hSSTR-2
Chain of SSTR2 (P30874 whole entry): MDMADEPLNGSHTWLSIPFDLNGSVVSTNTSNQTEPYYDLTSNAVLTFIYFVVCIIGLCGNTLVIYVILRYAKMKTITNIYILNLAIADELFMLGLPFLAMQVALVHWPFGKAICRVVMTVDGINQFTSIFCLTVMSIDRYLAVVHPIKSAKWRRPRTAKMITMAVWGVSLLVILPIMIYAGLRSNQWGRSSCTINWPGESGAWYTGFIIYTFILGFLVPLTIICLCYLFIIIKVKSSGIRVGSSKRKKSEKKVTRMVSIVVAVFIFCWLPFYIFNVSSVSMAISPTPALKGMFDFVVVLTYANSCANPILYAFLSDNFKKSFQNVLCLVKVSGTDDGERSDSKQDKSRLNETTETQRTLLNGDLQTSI
From the text: (§1) The binding to human cloned receptors SSTR-1, or SSTR-2 or SSTR-3 evaluated in stable and selective transfected CHO (Chinese Hamster Ovary) cells and binding to STSR-4 and SSTR-5 in stable and selective transfected Chem-1 (Rat ChemiSCREEN) cells. […] The binding reactions were filtered, the filters were washed, and the bound radioactivity was counted using a gamma counter.
(§2) The following table depicts the conditions of binding assay to each of the somatostatin receptors used for the evaluations of binding affinities of the tested peptides. All assays were performed by quantitation method of radioligand binding under 25° C. The vehicle was 1% DMSO, the incubation buffer was 25 mM HEPES, pH 7.4, 5 mM MgCl2, 1 mM CaCl2, 0.1% BSA. […] The significance criteria were >50% of max inhibition. […] This specific binding data used for calculation of Bmax values which is the concentration of each of the expressed cloned receptor in its transfected cell system.
(§3) The Results of IC50 values were determined by a non-linear, least squares regression analysis using MathIQ™ (ID Business Solutions Ltd., UK). […] The Hill coefficient (nH), defining the slope of the competitive binding curve, was calculated using MathIQ™.

SSTR1 = SSTR1 (Homo sapiens, UniProt P30872); design: host or cells: CHO (Chinese Hamster Ovary) cells, membrane preparation; conditions: hSSTR-1
Chain of SSTR1 (P30872 whole entry): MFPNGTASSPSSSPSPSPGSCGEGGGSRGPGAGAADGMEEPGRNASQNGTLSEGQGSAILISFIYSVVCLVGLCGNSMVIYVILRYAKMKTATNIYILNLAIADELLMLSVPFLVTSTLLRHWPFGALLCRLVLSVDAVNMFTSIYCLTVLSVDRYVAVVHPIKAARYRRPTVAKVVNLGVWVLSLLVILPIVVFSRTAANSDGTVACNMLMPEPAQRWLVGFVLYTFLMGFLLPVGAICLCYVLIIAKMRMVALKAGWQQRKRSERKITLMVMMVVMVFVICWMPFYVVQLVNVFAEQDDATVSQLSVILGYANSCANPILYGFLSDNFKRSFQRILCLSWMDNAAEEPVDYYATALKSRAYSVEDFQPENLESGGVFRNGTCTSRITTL
From the text: as §1, §2, §3

SSTR3 = SSTR3 (Homo sapiens, UniProt P32745); design: host or cells: CHO (Chinese Hamster Ovary) cells, membrane preparation; conditions: for affinity and selectivity to SSTR3 (in words): binding data; for % displacement of [^125I] Tyr^11-SRIF-14: hSSTR-3
Chain of SSTR3 (P32745 whole entry): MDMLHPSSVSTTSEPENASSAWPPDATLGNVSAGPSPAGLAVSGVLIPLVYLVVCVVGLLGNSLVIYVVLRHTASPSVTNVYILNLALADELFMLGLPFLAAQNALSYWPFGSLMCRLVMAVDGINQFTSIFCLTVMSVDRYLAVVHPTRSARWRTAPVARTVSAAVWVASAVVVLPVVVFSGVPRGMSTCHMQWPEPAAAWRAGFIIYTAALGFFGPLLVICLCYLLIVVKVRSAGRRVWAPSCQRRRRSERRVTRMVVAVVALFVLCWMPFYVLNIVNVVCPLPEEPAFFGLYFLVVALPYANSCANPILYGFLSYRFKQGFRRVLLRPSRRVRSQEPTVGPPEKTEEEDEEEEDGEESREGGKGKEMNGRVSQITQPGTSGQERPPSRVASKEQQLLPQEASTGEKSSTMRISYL
From the text: as §1, §2, §3

SSTR5 = SSTR5 (Homo sapiens, UniProt P35346); design: host or cells: Chem-1 (Rat ChemiSCREEN) cells, membrane preparation; conditions: hSSTR-5
Chain of SSTR5 (P35346 whole entry): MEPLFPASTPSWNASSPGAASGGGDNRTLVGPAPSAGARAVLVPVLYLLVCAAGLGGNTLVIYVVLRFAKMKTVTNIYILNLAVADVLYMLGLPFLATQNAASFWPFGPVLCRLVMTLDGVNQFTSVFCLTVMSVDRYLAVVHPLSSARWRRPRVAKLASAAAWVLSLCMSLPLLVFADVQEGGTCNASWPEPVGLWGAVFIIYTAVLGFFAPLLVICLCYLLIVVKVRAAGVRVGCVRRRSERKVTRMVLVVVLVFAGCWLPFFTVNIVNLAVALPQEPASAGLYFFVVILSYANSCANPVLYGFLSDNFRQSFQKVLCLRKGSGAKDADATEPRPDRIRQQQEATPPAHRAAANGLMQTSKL
From the text: as §1, §2, §3

hSSTR-4 = target: T1, hSSTR-4 (Homo sapiens, UniProt P31391); conditions: hSSTR-4
T1 construct: host or cells: Chem-1 (Rat ChemiSCREEN) cells, membrane preparation
T1 sequence (P31391 whole entry): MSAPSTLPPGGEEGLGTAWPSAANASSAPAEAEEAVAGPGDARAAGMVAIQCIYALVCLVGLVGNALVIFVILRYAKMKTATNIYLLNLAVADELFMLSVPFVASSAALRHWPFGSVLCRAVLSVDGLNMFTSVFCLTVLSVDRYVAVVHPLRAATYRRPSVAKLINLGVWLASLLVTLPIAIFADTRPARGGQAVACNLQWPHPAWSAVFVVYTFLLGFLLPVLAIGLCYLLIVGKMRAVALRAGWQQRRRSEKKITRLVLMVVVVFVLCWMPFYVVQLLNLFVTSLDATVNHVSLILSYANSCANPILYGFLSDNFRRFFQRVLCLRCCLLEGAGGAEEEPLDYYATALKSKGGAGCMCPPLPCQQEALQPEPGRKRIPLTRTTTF
From the text: as §1, §2, §3

Substance	% displacement of [^125I] Tyr^11-SRIF-14 (SSTR2; at 1 nM (in brackets))	% displacement of [^125I] Tyr^11-SRIF-14 (SSTR2; at 10 nM)	% displacement of [^125I] Tyr^11-SRIF-14 (SSTR1; at 1 nM (in brackets)) [%]	% displacement of [^125I] Tyr^11-SRIF-14 (SSTR1; at 10 nM) [%]	affinity and selectivity to SSTR3 (in words) (SSTR3)	% displacement of [^125I] Tyr^11-SRIF-14 (SSTR3; at 1 nM (in brackets)) [%]	% displacement of [^125I] Tyr^11-SRIF-14 (SSTR3; at 10 nM) [%]	% displacement of [^125I] Tyr^11-SRIF-14 (SSTR5; at 1 nM (in brackets))	% displacement of [^125I] Tyr^11-SRIF-14 (SSTR5; at 10 nM)	% displacement of [^125I] Tyr^11-SRIF-14 (hSSTR-4; at 1 nM (in brackets))	% displacement of [^125I] Tyr^11-SRIF-14 (hSSTR-4; at 10 nM)	affinity to SSTR3 (SSTR3) [nM]
H-Arg^1-Gly^2-Asp^3-D-Phe^4-Arg^5-Cys^6-Phe^7-D-Trp^8-Lys^9-Thr^10-Phe^11 -NTEG^12-NH^2 (cyclo 6-12) (H-RGD[dF]RCF[dW]KTF[N(2-mercaptoethyl)Gly]-NH2; disulfide 6-12; SMILES C[C@@H](O)[C@@H]1NC(=O)[C@H](CCCCN)NC(=O)[C@@H](Cc2c[nH]c3ccccc23)NC(=O)[C@H](Cc2ccccc2)NC(=O)[C@@H](NC(=O)[C@H](CCCNC(=N)N)NC(=O)[C@@H](Cc2ccccc2)NC(=O)[C@H](CC(=O)O)NC(=O)CNC(=O)[C@@H](N)CCCNC(=N)N)CSSCCN(CC(N)=O)C(=O)[C@H](Cc2ccccc2)NC1=O) [SEQ ID NO: 13]	0%	12%	9	15	did not interfere with the affinity and selectivity of SEQ ID NO: 3 to SSTR3	36	78	0%	4%	0(0) %	0(0) %	
DOTA-D-Phe^1-Lys^2-Cys^3-Tyr^4-D-Trp^5-Lys^6-Thr^7-Phe^8-NTEG^9 -NH2 (cyclo 3-9) ({DOTA}-[dF]KCY[dW]KTF[N(2-mercaptoethyl)Gly]-NH2; disulfide 3-9; SMILES C[C@@H](O)[C@@H]1NC(=O)[C@H](CCCCN)NC(=O)[C@@H](Cc2c[nH]c3ccccc23)NC(=O)[C@H](Cc2ccc(O)cc2)NC(=O)[C@@H](NC(=O)[C@H](CCCCN)NC(=O)[C@@H](Cc2ccccc2)NC(=O)CN2CCN(CC(=O)O)CCN(CC(=O)O)CCN(CC(=O)O)CC2)CSSCCN(CC(N)=O)C(=O)[C@H](Cc2ccccc2)NC1=O) [SEQ ID NO: 24]						66	88					
DOTA-Phe^1-D-Phe^2-Arg^3-(Cys^4-Phe^5-D-Trp^6-Lys^7-Thr^8-Phe^9-NTEG^10)-NH2 (cyclo 4-10) ({DOTA}-F[dF]RCF[dW]KTF[N(2-mercaptoethyl)Gly]-NH2; disulfide 4-10; SMILES C[C@@H](O)[C@@H]1NC(=O)[C@H](CCCCN)NC(=O)[C@@H](Cc2c[nH]c3ccccc23)NC(=O)[C@H](Cc2ccccc2)NC(=O)[C@@H](NC(=O)[C@H](CCCNC(=N)N)NC(=O)[C@@H](Cc2ccccc2)NC(=O)[C@H](Cc2ccccc2)NC(=O)CN2CCN(CC(=O)O)CCN(CC(=O)O)CCN(CC(=O)O)CC2)CSSCCN(CC(N)=O)C(=O)[C@H](Cc2ccccc2)NC1=O) [SEQ ID NO: 20]	0%	2%	8	14		66	95	0(0) %	0(0) %	0(0) %	0(0) %	
DOTA-Lys^1-D-Phe^2-Arg^3-Gly^4-Asp^5-Glu^6-GABA-D-Phe^7-Lys^8-Cys^9-Phe^10-D-Trp^11-Lys^12- Thr^13-Phe^14-NTEG^15-NH2 (cyclo 1-6; cyclo 9-15) ({DOTA}-K[dF]RGDE[GABA][dF]KCF[dW]KTF[N(2-mercaptoethyl)Gly]-NH2; lactam 1-6; disulfide 10-16; not fully specified; printed as DOTA-Lys1-D-Phe2-Arg3-Gly4-Asp5-Glu6-GABA-D-Phe7-Lys8-Cys9-Phe10-D-Trp11-Lys12- Thr13-Phe14-NTEG15-NH2 (cyclo 1-6, cyclo 9-15); numbers in words are those of the source; also: cyclo 1-6 listed as disulfide between Lys1 and Glu6) [SEQ ID NO: 17]	11%	8%	9	15		68	91	15%	13%	7%	5%	
DOTA-Arg^1-Gly^2-Asp^3-D-Phe^4-Arg^5-Cys^6-Phe^7-D-Trp^8-Lys^9-Thr^10-Phe^11-NTEG^12- NH2 (cyclo 6-12) ({DOTA}-RGD[dF]RCF[dW]KTF[N(2-mercaptoethyl)Gly]-NH2; disulfide 6-12; SMILES C[C@@H](O)[C@@H]1NC(=O)[C@H](CCCCN)NC(=O)[C@@H](Cc2c[nH]c3ccccc23)NC(=O)[C@H](Cc2ccccc2)NC(=O)[C@@H](NC(=O)[C@H](CCCNC(=N)N)NC(=O)[C@@H](Cc2ccccc2)NC(=O)[C@H](CC(=O)O)NC(=O)CNC(=O)[C@H](CCCNC(=N)N)NC(=O)CN2CCN(CC(=O)O)CCN(CC(=O)O)CCN(CC(=O)O)CC2)CSSCCN(CC(N)=O)C(=O)[C@H](Cc2ccccc2)NC1=O) [SEQ ID NO: 14]					did not interfere with the affinity and selectivity of SEQ ID NO: 3 to SSTR3	46	89					
DOTA-Gly^1-D-Phe^2-Arg^3-Cys^4-Phe^5-D-Trp^6-Lys^7-Thr^8-Phe^9-NTEG^10-NH2 (cyclo 4-10) ({DOTA}-G[dF]RCF[dW]KTF[N(2-mercaptoethyl)Gly]-NH2; disulfide 4-10; SMILES C[C@@H](O)[C@@H]1NC(=O)[C@H](CCCCN)NC(=O)[C@@H](Cc2c[nH]c3ccccc23)NC(=O)[C@H](Cc2ccccc2)NC(=O)[C@@H](NC(=O)[C@H](CCCNC(=N)N)NC(=O)[C@@H](Cc2ccccc2)NC(=O)CNC(=O)CN2CCN(CC(=O)O)CCN(CC(=O)O)CCN(CC(=O)O)CC2)CSSCCN(CC(N)=O)C(=O)[C@H](Cc2ccccc2)NC1=O) [SEQ ID NO: 11]	0(0) %	0(0) %	2	19		47	88	0(0) %	0(0) %	0(0) %	0(0) %	
(DOTA)2-Lys^1-D-Phe^2-Arg^3-Cys^4-Phe^5-D-Trp^6-Lys^7-Thr^8-Phe^9-NTEG^10-NH2 (cyclo 3-9) ({DOTA}-K(DOTA)[dF]RCF[dW]KTF[N(2-mercaptoethyl)Gly]-NH2; disulfide 4-10 (inferred); not fully specified; printed as (DOTA)2-Lys1-D-Phe2-Arg3-Cys4-Phe5-D-Trp6-Lys7-Thr8-Phe9-NTEG10-NH2 (cyclo 3-9)) [SEQ ID NO: 16]	6%	2%	0	5		47	88	0%	3%	0(0) %	0(0) %	
CPT-8-aminooctanoic acid-D-Phe^1-Arg^2-Cys^3-Phe^4-D-Trp^5-Lys^6-Thr^7-Phe^8-NTEG^9-NH2 (cyclo 3-9) ({CPT-Aoc}-[dF]RCF[dW]KTF[N(2-mercaptoethyl)Gly]-NH2; disulfide 3-9) [SEQ ID NO: 27]	0(0) %	0(0) %	0	3	the same selectivity to SSTR3 as SEQ ID NO: 1	12	51	0(0) %	0(0) %	0(0) %	0(0) %	≤ 10
DOTA-GABA-D-Phe^1-Arg^2-Cys^3-Phe^4-D-Trp^5-Lys^6-Thr^7-Phe^8-NTEG^9-NH2 (cyclo 3-9) ({DOTA-GABA}-[dF]RCF[dW]KTF[N(2-mercaptoethyl)Gly]-NH2; disulfide 3-9) [SEQ ID NO: 7]					increased the affinity and selectivity							

— patent US20240165282A1, “CONFORMATIONAL CONSTRAINED SOMATOSTATIN RECEPTOR 3 PEPTIDE LIGANDS AND THEIR CONJUGATES AND USES THEREOF” (STARGET PHARMA LTD., priority 2021, published 2024)
